# ± gives the uncertainty stated by the source.
# Experiment: self-splicing fitness, log relative to wild type (ln ratio); higher = more splicing; Tetrahymena group I intron in knt gene, E. coli kanamycin selection, DiMSum; sequences stand for … in CUCUCU…GGAGGGAAAAGUUAUCAGGCAUGCACCUGGUAGCUAGUCUUUAAACCAAUAGAUUGCAUCGGUUUAAAAGGCAAGACCGUCAAAUUGCGGGAAAGGGGUCAACAGCCGUUCAGUACCAAGUCUCAGGGGAAACUUUGAGAUGGCCUUGCAAAGGGUAUGGUAAUAAGCUGACGGACAUGGUCCUAACCACGCAGCCAAGUCCUAAGUCAACAGAUCUUCUGUUGAUAUGGAUGCAGUUCACAGACUAAAUGUCGGUCGGGGAAGAUGUAUUCUUCUCAUAAGAUAUAGUCGGACCUCUCCUUAAUGGGAGCUAGCGGAUGAAGUGAUGCAACACUGGAGCCGCUGGGAACUAAUUUGUAUGCGAAAGUAUAUUGAUUAGUUUUGGAGUACUCGUGGUCG
# How it was run: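 Pooled colonies went to amplicon sequencing on an Illumina HiSeq 2500 after six replicate transformations. The plates were LB agar with 100 μg/mL carbenicillin, 50 μM IPTG and 0.2% rhamnose, with or without 25 μg/mL kanamycin, incubated overnight at 37°C or 30°C. The E. coli BL21(DE3) library had all eight P1ex-region intron nucleotides randomised, the intron placed in the knt kanamycin-resistance gene on pET-22b(+). DiMSum fitness is the error-weighted combination of replicate fold changes, kanamycin against none, normalised to wild type.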
Sequence,self-splicing fitness (ln) (30 °C),self-splicing fitness (ln) (37 °C)
GCCCAGCAAUAUUACGAAAU,-1.7 ± 0.068,-1.36 ± 0.089
UGAUAGCAAUAUUACGCUAG,-1.09 ± 0.081,-0.588 ± 0.078
CAGGAGCAAUAUUACGCAAU,–,-1.35 ± 0.27
ACUCAGCAAUAUUACGGGGC,-4.64 ± 0.34,-2.93 ± 0.44
AUAGAGCAAUAUUACGUGGC,-3.18 ± 0.4,-2.7 ± 0.26
CCAGAGCAAUAUUACGAUGA,-1.88 ± 0.14,-0.518 ± 0.11
GAUUAGCAAUAUUACGGCGA,-1.12 ± 0.11,-0.219 ± 0.11
UGGCAGCAAUAUUACGGUUU,-0.212 ± 0.061,-0.422 ± 0.078
CCCAAGCAAUAUUACGUUGG,-3.48 ± 0.14,-2.28 ± 0.13
UAGAAGCAAUAUUACGACUA,-0.222 ± 0.11,0.71 ± 0.14
AGCUAGCAAUAUUACGUUGU,-2.56 ± 0.17,-2.32 ± 0.22
UCUUAGCAAUAUUACGUUAC,–,-2.83 ± 0.31
AGGCAGCAAUAUUACGGAGC,-3.51 ± 0.14,-3.32 ± 0.26
UUCAAGCAAUAUUACGCCUA,0.0224 ± 0.061,0.182 ± 0.077
GCGAAGCAAUAUUACGCCUU,–,-1.5 ± 0.26
UCCAAGCAAUAUUACGCUCA,-1.03 ± 0.11,-0.393 ± 0.13
AUGGAGCAAUAUUACGUGGU,-3.08 ± 0.17,-1.35 ± 0.23
AAGCAGCAAUAUUACGGGUU,-2.1 ± 0.094,-1.61 ± 0.12
AUAGAGCAAUAUUACGGACA,-2.38 ± 0.27,-0.896 ± 0.33
UCUGAGCAAUAUUACGAAUC,-3.29 ± 0.25,-3.03 ± 0.43
CUUUAGCAAUAUUACGUGUA,-3.34 ± 0.19,-2.81 ± 0.24
UCGGAGCAAUAUUACGGGAC,–,-1.99 ± 0.29
UCCUAGCAAUAUUACGUAGC,-3.05 ± 0.14,-2.23 ± 0.16
UUGGAGCAAUAUUACGAAAG,-2.5 ± 0.33,-2.08 ± 0.37
ACACAGCAAUAUUACGGUAG,-4 ± 0.17,-3.1 ± 0.15

Sequence,self-splicing fitness (ln) (30 °C),self-splicing fitness (ln) (37 °C)
CUACAGCAAUAUUACGAUGU,-3.46 ± 0.17,-2.44 ± 0.19
UUCAAGCAAUAUUACGACUG,-2.38 ± 0.15,-1.33 ± 0.12
AGUCAGCAAUAUUACGUCCA,-1.25 ± 0.13,-1.05 ± 0.15
AACGAGCAAUAUUACGUUGA,-3.48 ± 0.21,-3.32 ± 0.22
ACGGAGCAAUAUUACGCCUC,-2.43 ± 0.43,-1.82 ± 0.27
GGCGAGCAAUAUUACGGAGA,–,-1.69 ± 0.39
AAUAAGCAAUAUUACGCCUG,-0.724 ± 0.13,0.286 ± 0.17
CUUGAGCAAUAUUACGGGCG,-2.02 ± 0.13,-1.51 ± 0.11
AUGAAGCAAUAUUACGUACA,-0.369 ± 0.083,-0.631 ± 0.089
GACAAGCAAUAUUACGAUUC,-0.734 ± 0.083,-0.552 ± 0.12
GAAUAGCAAUAUUACGCACG,-1.22 ± 0.15,-0.764 ± 0.2
CAUUAGCAAUAUUACGUUUC,-2.39 ± 0.33,-2.2 ± 0.32
UACGAGCAAUAUUACGUUUU,-3.66 ± 0.17,-2.4 ± 0.16
GGCAAGCAAUAUUACGUUGU,-3.52 ± 0.16,-2.6 ± 0.21
AGCCAGCAAUAUUACGUAUU,-3.72 ± 0.13,-2.05 ± 0.12
AAUUAGCAAUAUUACGCACA,0.0525 ± 0.13,-0.475 ± 0.15
CUUCAGCAAUAUUACGGCCG,-0.988 ± 0.16,-0.154 ± 0.21
AACCAGCAAUAUUACGGACC,0.38 ± 0.1,-0.273 ± 0.11
CACGAGCAAUAUUACGUCCC,-1.45 ± 0.25,–
UUCAAGCAAUAUUACGUCAC,-3.57 ± 0.34,-2.42 ± 0.39
UAUCAGCAAUAUUACGUCAU,-1.88 ± 0.13,-1.42 ± 0.15
AACUAGCAAUAUUACGACCC,–,-0.568 ± 0.41
UAUCAGCAAUAUUACGACUU,-0.502 ± 0.067,-0.0466 ± 0.074
CCAUAGCAAUAUUACGCGUU,-3.53 ± 0.23,-2.51 ± 0.24
UCAUAGCAAUAUUACGUUGC,-3.86 ± 0.31,-2.31 ± 0.32
